Results from patent US20120251557A1 (VERENIGING VOOR CHRISTELIJK HOGER ONDERWIJS …, published 2012).

Columns and labels:
[1] = target: C-containing CD45 isoforms from PBL (detected with anti-CD45RC); test: ELISA: MGL-Fc-coated plate captures ligands from PBL lysate, detection with anti-CD45RC; ++ = high binding (OD 450 nm >0.25)
[2] = target: human CD45ABC isoform in transfected murine 300-19 cells (human) (UniProt P08575); test: ELISA: isoform pulled down from transfectant lysate with panCD45 antibody, probed with MGL-Fc; ++ = high binding (OD 450 nm >0.25)
[3] = target: human CD45B isoform in transfected murine 300-19 cells (human) (UniProt P08575); test: as above
[4] = target: human CD45AB isoform in transfected murine 300-19 cells (human) (UniProt P08575); test: as above
[5] = target: human CD45BC isoform in transfected murine 300-19 cells (human) (UniProt P08575); test: as above
[6] = target: B-containing CD45 isoforms from PBL (detected with anti-CD45RB); test: ELISA: MGL-Fc-coated plate captures ligands from PBL lysate, detection with anti-CD45RB; ++ = high binding (OD 450 nm >0.25)
[7] = target: CD45 on human peripheral blood lymphocytes (PBL) (human) (UniProt P08575); test: ELISA: MGL-Fc-coated plate captures ligands from PBL lysate, detection with panCD45 antibody; ++ = high binding (OD 450 nm >0.25)
[8] = target: A-containing CD45 isoforms from PBL (detected with anti-CD45RA); test: ELISA: MGL-Fc-coated plate captures ligands from PBL lysate, detection with anti-CD45RA; + = low binding (OD 450 nm <0.25)
[9] = target: CD45 on human peripheral blood lymphocytes (PBL) (human) (UniProt P08575); test: cell-based or functional assay
[10] = target: T1, secreted tumor-associated MUC1 from the supernatant of ZR75 tumor cells (UniProt P15941 24-1097, limits assumed); test: ELISA on coated MUC1 from ZR75 supernatant
T1 construct: Coated on ELISA plates, or loaded on beads through MUC1 antibodies; also called secreted MUC1 from tumor cell line ZR75
Source text: Example 2, FIG. 8. MGL-Fc detects secreted MUC1 from tumor cell line ZR75. FIG. 8A, MUC1 was harvested out of the supernatant of cultured ZR75 tumor cells and coated on ELISA plates. Both MGLFc and DC-SIGNFc were used to look for carbohydrate-binding epitopes expressed on tumor-associated MUC1. […] Furthermore, EGTA, which inhibits lectin binding to carbohydrates, illustrates that the recognition of MGL to MUC1 is carbohydrate mediated. FIG. 8B, in a second experiment, the tumor-associated MUC1 were coated on fluorescent beads coupled with MUC1 antibodies. Fluorescent MUC1-coupled beads were added to MGL-expressing CHO cells and untransfected CHO cells.
This experiment is depicted in FIG. 8 of Example 2. In FIG. 8A, MUC1 was harvested out of the supernatant of cultured ZR75 tumor cells and coated on ELISA plates. Both MGLFc and DC-SIGNFc were used to look for carbohydrate-binding epitopes expressed on tumor-associated MUC1. […] Furthermore, EGTA, which inhibits lectin binding to carbohydrates, illustrates that the recognition of MGL to MUC1 is mediated by the expression of carbohydrates.

Sequence of CD45 on human peripheral blood lymphocytes (PBL) (human) (P08575 26-1306): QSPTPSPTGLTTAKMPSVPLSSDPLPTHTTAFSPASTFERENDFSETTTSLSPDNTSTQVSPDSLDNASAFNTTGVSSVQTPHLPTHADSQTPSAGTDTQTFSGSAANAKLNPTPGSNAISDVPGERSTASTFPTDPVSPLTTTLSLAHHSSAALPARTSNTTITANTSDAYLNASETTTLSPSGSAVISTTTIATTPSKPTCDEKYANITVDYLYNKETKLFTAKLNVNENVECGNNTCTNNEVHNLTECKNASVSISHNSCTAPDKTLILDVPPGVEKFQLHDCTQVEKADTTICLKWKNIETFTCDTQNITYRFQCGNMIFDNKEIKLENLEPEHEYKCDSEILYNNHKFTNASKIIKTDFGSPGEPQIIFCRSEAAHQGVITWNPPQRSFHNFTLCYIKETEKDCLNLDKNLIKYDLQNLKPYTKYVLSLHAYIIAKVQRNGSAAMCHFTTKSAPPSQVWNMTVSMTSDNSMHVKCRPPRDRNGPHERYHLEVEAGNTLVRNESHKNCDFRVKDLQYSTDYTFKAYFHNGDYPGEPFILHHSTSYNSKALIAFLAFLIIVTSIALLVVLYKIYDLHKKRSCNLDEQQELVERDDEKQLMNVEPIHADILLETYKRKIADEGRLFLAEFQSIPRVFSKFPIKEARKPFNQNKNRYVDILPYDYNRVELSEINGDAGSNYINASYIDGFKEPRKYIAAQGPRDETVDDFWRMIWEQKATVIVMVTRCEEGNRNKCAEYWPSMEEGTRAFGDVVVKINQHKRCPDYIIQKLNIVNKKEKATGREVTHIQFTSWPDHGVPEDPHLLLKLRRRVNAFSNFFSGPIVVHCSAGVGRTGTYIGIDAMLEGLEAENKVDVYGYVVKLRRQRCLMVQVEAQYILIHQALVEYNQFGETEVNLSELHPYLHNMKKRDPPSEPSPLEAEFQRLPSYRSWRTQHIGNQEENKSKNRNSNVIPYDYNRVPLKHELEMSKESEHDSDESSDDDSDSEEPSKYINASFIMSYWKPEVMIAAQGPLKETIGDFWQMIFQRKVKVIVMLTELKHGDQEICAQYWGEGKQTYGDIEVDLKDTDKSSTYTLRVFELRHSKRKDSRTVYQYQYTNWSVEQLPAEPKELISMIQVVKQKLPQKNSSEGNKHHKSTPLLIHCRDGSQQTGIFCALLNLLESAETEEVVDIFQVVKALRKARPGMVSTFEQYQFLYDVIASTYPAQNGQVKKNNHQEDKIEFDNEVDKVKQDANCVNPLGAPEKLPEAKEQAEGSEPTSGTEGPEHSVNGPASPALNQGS
T1 sequence (P15941 24-1097 limits assumed): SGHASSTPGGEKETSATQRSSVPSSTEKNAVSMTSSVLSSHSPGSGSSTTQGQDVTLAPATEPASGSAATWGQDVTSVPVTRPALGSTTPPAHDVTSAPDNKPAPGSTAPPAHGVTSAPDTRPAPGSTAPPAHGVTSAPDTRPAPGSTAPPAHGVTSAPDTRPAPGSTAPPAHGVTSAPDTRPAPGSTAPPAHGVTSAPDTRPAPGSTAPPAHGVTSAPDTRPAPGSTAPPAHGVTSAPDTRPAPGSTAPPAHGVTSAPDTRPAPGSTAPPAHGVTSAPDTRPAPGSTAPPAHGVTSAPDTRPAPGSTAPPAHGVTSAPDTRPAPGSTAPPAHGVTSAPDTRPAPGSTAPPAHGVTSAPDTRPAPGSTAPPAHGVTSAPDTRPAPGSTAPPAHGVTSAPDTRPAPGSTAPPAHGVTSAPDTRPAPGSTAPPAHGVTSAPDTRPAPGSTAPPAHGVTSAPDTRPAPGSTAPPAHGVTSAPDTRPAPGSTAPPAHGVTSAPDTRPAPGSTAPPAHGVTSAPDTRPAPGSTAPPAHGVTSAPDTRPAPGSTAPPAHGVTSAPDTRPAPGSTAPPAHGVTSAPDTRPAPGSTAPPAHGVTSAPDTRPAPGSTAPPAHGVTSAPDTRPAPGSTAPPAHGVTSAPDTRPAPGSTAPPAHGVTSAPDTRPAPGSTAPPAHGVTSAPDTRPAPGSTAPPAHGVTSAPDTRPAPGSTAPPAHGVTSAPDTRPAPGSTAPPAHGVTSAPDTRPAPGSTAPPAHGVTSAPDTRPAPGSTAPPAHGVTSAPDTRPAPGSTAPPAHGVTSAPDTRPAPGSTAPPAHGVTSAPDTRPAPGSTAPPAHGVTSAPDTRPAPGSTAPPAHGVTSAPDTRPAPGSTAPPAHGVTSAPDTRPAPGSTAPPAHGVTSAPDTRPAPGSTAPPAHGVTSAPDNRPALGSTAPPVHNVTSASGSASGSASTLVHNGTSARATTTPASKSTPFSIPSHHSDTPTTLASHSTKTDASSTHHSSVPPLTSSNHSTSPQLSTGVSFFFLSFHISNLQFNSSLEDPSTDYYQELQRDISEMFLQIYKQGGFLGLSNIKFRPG
Sequence of human CD45ABC isoform in transfected murine 300-19 cells (human) (P08575 26-1306): as the sequence (P08575 26-1306) above

Molecule: MGL-Fc (extracellular part of human MGL, amino acids 61-289, fused at the C-terminus to human IgG1-Fc) (from UniProt Q8IUN9 61-289; P01857 99-330) (Fc fusion)
- OD 450 nm [1]: > 0.25 od
- OD 450 nm [2]: > 0.25 od
- OD 450 nm [3]: > 0.25 od
- OD 450 nm [4]: > 0.25 od
- OD 450 nm [5]: > 0.25 od
- OD 450 nm [6]: > 0.25 od
- OD 450 nm [7]: > 0.25 od
- OD 450 nm [8]: < 0.25 od

Molecule: Macrophage galactose-type lectin (MGL) on cells (CHO-MGL transfectants, monocyte-derived dendritic cells, dexamethasone-treated APC) (from UniProt Q8IUN9 1-316) (receptor)
- proliferation of allogeneic CD4+ T cells ([methyl-3H]thymidine) in co-culture with dexamethasone-treated APC, with or without blocking anti-MGL antibodies [9]: 3 fold

B1: DC-SIGN-Fc (Fc fusion, UniProt Q9NNX6 64-404, looked up)
chain: PSSISQEQSRQDAIYQNLTQLKAAVGELSEKSKLQEIYQELTQLKAAVGELPEKSKLQEIYQELTRLKAAVGELPEKSKLQEIYQELTWLKAAVGELPEKSKMQEIYQELTRLKAAVGELPEKSKQQEIYQELTRLKAAVGELPEKSKQQEIYQELTRLKAAVGELPEKSKQQEIYQELTQLKAAVERLCHPCPWEWTFFQGNCYFMSNSQRNWHDSITACKEVGAQLVVIKSAEEQNFLQLQSSRSNRFTWMGLSDLNQEGTWQWVDGSPLLPSFKQYWNRGEPNNVGEEDCAEFSGNGWNDDKCNLAKFWICKKSAASCSRDEEQFLSPAPATPNPPPA
notes: not shown: Fc part not described
- binding result [10]: no binding
